First the molecules themselves.
B1: library; numbered along this chain (parent)
chain: MAELLLGVNIDHIATLRNARGTAYPDPVQAAFIAEQAGADGITVHLREDRRHITDRDVRILRQTLDTRMNLEMAVTEEMLAIAVETKPHFCCLVPEKRQEVTTEGGLDVAGQRDKMRDACKRLADAGIQVSLFIDADEEQIKAAAEVGAPFIEIHTGCYADAKTDAEQAQELARIAKAATFAASLGLKVNAGHGLTYHNVKAIAAIPEMHELNIGHAIIGRAVMTGLKDAVAEMKRLMLEARG

± gives the standard deviation of the averaged measurements.

In this series the parent is B1. Description: pyridoxine titer in culture supernatant of strain expressing the PdxJ variant; higher = more PN produced (higher in vivo pathway activity of the PdxJ variant). The following applies: host strain: E. coli LL006; 48 h; temperature: 37 °C; FM1.4. As for the experimental part:
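Rosetta-designed single to quadruple mutants of E. coli PdxJ (PNP synthase) were expressed from pRSFDuet-1 in the engineered chassis E. coli LL006 (MG1655 ΔpdxH::pdxST, pta::Eme_pdxP). Strains were grown in 24 deep-well plates in 2 mL FM1.4 glycerol medium at 37 °C and 800 rpm for 48 h. Extracellular pyridoxine (PN) titer was quantified by HPLC with fluorescence detection; two biological replicates, with the WT pdxJ strain (LL137, about 0.5 mg/L) as control.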
Regarding MAELLLGVNIDHIATLRNARGTTYPDPVQAAFIAEQAGADGITIHLREDRRHITDRDVRILRQTLDTRMNLEMAVTEEMLAIAVETKPHFCCLVPEKRQEVTTEGGLDVAGQRDKMRDACKRLADAGIQVSLFIDADEEQIKAAAEVGAPFIEIHTGCYADAKTDAEQAQELARIAKAATFAASLGLKVNAGHGLWYHNVKAIAAIPEMHEINIGHAIIGRAVMTGLKDAVAEMKRLMLEARG [A23T V44I T196W L212I], the pyridoxine titer is 2.89 ± 0.96 mg/L.

Take MAELLLGVNIDHIATLRNARGTAYPDPVQAAFIAEQAGADGITVHLREDRRHITDRDVRILRQTLDTRMNLEMAVTEEMLAIAVETKPHFCCLVPEKRQEVTTEGGLDVAGQRDKMRDACKRLADAGIQVSLFIDADEEQIKAAAEVGAPFIEIHTGCYADAKTDAEQAQELARIAKAATFAASLGLKVNAGHCLTYHNVKAIAAIPEMHELNIGHALIGRAVMTGLKDAVAEMKRLMLEARG [G194C I218L]: the pyridoxine titer turned out to be 1.33 ± 0.76 mg/L.

With MAELLLGVNLDHIATLRNLRGTTYPDPVQAAFIAEQAGADGITVHLREDRRHITDRDVRILRQTLDTRMNLEMAVTEEMLAIAVETKPHFCCLVPEKRQEVTTEGGLDVAGQRDKMRDACKRLADAGIQVSLFIDADEEQIKAAAEVGAPFIEIHTGCYADAKTDAEQAQELARIAKAATFAASLGLKVNAGHGLTYHNVKAIAAIPEMHELNIGHAIIGRAVMTGLKDAVAEMKRLMLEARG [I10L A19L A23T], the pyridoxine titer is 0.2 ± 0.028 mg/L.

For the variant MAELLLGVNIDHVATLRNARGTAYPDPVQAAFIAEQAGADGITLHLREDRRHITDRDVRILRQTLDTRMNLEMAVTEEMLAIAVETKPHFCCLVPEKRQEVTTTGGLDVAGQRDKMRDACKRLADAGIQVSLFIDADEEQIKAAAEVGAPFIEIHTGCYADAKTDAEQAQELARIAKAATFAASLGLKVNAGHGLTYHNVKAIAAIPEMHEINIGHAIIGRAVMTGLKDAVAEMKRLMLEARG [I13V V44L E104T L212I], the pyridoxine titer was determined as 0.354 ± 0.0062 mg/L.

As for MAELLLGVNLDHIATLRNARGTAYPDPVQAAFIAEQAGADGITVHLREDRRHITDRDVRILRQTLDTRMNLEMAVTEEMLAIAVETKPHFCCLVPEKRQEVTTEGGLDVAGQRDKMRDACKRLADAGIQVSLFIDADEEQIKAAAEVGAPFIEIHTGCYADAKTDAEQAQELARIAKAATFAASLGLKVNAGHGLTYHNVKAIAAIPEMHELNIGHALIGRAVMTGLKDAVAEMKRLMLEARG [I10L I218L], the pyridoxine titer was 2.4 ± 0.35 mg/L.

Turning to MAELLLGVNIDHVATLRNARGTAYPDPVQAAFIAEQAGADGITVHLREDRRHITDRDVRILRQTLDTRMNLEMAVTEEMLAIAVETKPHFCCLVPEKRQEVTTEGGLDVAGQRDKMRDACKRLADAGIQVSLFIDADEEQIKAAAEVGAPFIELHTGCYADAKTDAEQAQELARIAKAATFAASLGLKVNAGHGLCYHNVKAIAAIPEMHELNIGHAIIGRAVMTGLKDAVAEMKRLMLEARG [I13V I154L T196C], the pyridoxine titer worked out at 0.52 ± 0.014 mg/L.

Turning to MAELLLGVNIDHIATLRNARGTTYPDPVQAAFIAEQAGADGITVHLREDRRHITDRDVRILRQTLDTRMNLEMAVTEEMLAIAVETKPHFCCLVPEKRQEVTTTGGLDVAGQRDKMRDACKRLADAGIQVSLFIDADEEQIKAAAEVGAPFIELHTGCYADAKTDAEQAQELARIAKAATFAASLGLKVNAGHGLTYHNVKAIAAIPEMHELNIGHAIIGRAVMTGLKDAVAEMKRLMLEARG [A23T E104T I154L], the pyridoxine titer was determined as 2.31 ± 0.92 mg/L.

Consider MAELLLGVNLDHIITLRNARGTAYPDPVQAAFIAEQAGADGITVHLREDRRHITDRDVRILRQTLDTRMNLEMAVTEEMLAIAVETKPHFCCLVPEKRQELTTEGGLDVAGQRDKMRDACKRLADAGIQVSLFIDADEEQIKAAAEVGAPFIEIHTGCYADAKTDAEQAQELARIAKAATFAASLGLKVNAGHGLTYHNVKAIAAIPEMHELNIGHAIIGRAVMTGLKDAVAEMKRLMLEARG [I10L A14I V101L], for which the pyridoxine titer amounted to 0.31 ± 0.014 mg/L.

For the variant MAELLLGVNLDHIATLRNARGVAYPDPVQAAFIAEQAGADGITVHLREDRRHITDRDVRILRQTLDTRMNLEMAVTEEMLAIAVETKPHFCCLVPEKRQEVTTTGGLDVAGQRDKMRDACKRLADAGIQVSLFIDADEEQIKAAAEVGAPFIEIHTGCYADAKTDAEQAQELARIAKAATFAASLGLKVNAGHGLTYHNVKAIAAIPEMHELNIGHAILGRAVMTGLKDAVAEMKRLMLEARG [I10L T22V E104T I219L], the pyridoxine titer is 2.93 ± 0.16 mg/L.

As to MAELLLGVNIDHIATLRNARGTTVPDPVQAAFIAEQAGADGITVHLREDRRHITDRDVRILRQTLDTRMNLEMAVTEEMLAIAVETKPHFCCLVPEKRQEVTTEGGLDVAGQRDKMRDACKRLADAGIQVSLFIDADEEQIKAAAEVGAPFIEIHTGCYADAKTDAEQAQELARIAKAATFAASLGLKVNAGHGLTYHNVKAIAAIPEMHELNIGHAIIGRAVMTGLKDAVAEMKRLMLEARG [A23T Y24V], the pyridoxine titer turned out to be 0.39 ± 0.028 mg/L.

Consider MAELLLGVNINHIATLRNARGTAYPDPVQAAFIAEQAGADGITVHLREDRRHITDRDVRILRQTLDTRMNLEMAVTEEMLAIAVETKPHFCCLVPEKRQEVTTEGGLDVAGQRDKMRDACKRLADAGIQVSLFIDADEEQIKAAAEVGAPFIEIHTGCYADAKTDAEQAQELARIAKAATFAASLGLKVNAGHGLTYHNVKAIAAIPEMHELNIGHAIIGRAVMTGLKDAVAEMKRLMLEARG [D11N], for which the pyridoxine titer was determined as 1.88 ± 0.18 mg/L.

Take MAELLLGVNLDHVATLRNARGTAYPDPVQAAFIAEQAGADGITVHLREDRRHITDRDVRILRQTLDTRMNLEMAVTEEMLAIAVETKPHFCCLVPEKRQEVTTEGGLDVAGQRDKMRDACKRLADAGIQVSLFIDADEEQIKAAAEVGAPFIEIHTGCYADAKTDAEQAQELARIAKAATFAASLGLKVNAGHGLVYHNVKAIAAIPEMHEINIGHAIIGRAVMTGLKDAVAEMKRLMLEARG [I10L I13V T196V L212I]: the pyridoxine titer was 0.575 ± 0.077 mg/L.

The values above are taken from the supplement of paper PMC10471632, “Protein engineering and iterative multimodule optimization for vitamin B6 production in Escherichia coli” (Nature Communications, 2023).
